Measurements taken from publication PMC10914487, “Interaction of human dendritic cell receptor DEC205/CD205 with keratins” (The Journal of Biological Chemistry, 2024).

B1: CysR∼CTLD3-Fc of DEC205 [human] / K10-T10 (residue G481-G490), SUMO fusion [human] (parent complex)
chain 1: SGRAANDPFTIVHGNTGKCIKPVYGWIVADDCDETEDKLWKWVSQHRLFHLHSQKCLGLDITKSVNELRMFSCDSSAMLWWKCEHHSLYGAARYRLALKDGHGTAISNASDVWKKGGSEESLCDQPYHEIYTRDGNSYGRPCEFPFLIDGTWHHDCILDEDHSGPWCATTLNYEYDRKWGICLKPENGCEDNWEKNEQFGSCYQFNTQTALSWKEAYVSCQNQGADLLSINSAAELTYLKEKEGIAKIFWIGLNQLYSARGWEWSDHKPLNFLNWDPDRPSAPTIGGSSCARMDAESGLWQSFSCEAQLPYVCRKPLNNTVELTDVWTYSDTRCDAGWLPNNGFCYLLVNESNSWDKAHAKCKAFSSDLISIHSLADVEVVVTKLHNEDIKEEVWIGLKNINIPTLFQWSDGTEVTLTYWDENEPNVPYNKTPNCVSYLGELGQWKVQSCEEKLKYVCKRKGEKLNDASSDKMCPPDEGWKRHGETCYKIYEDEVPFGTNCNLTITSRFEQEYLNDLMKKYDKSLRKYFWTGLRDVDSCGEYNWATVGGRRRAVTFSNWNFLEPASPGGCVAMSTGKSVGKWEVKDCRSFKALSICKKMS
chain 2: GSSGGGHGGG

Variants of: B1
Experiment: ELISA; pH 6.0; protein conc 5 µg/ml (highest point of the titration); parent: 3.9; read off a plot

Row | response | Variant
1 | ~2.1 OD 450 | chain 2 GSRGGGHGGG
2 | ~1.9 OD 450 | chain 2 GSSGGGRGGG
